The values below come from patent US20230088269A1.

As a reminder, the koff is the rate constant with which the complex falls apart.

The test addresses recombinant human IL-22R (R&D Systems / Biotechne 2770-LR) (human) (UniProt Q8N6P7). Briefly: SPR (Biacore), purified Fab. A general note: In SPR one partner is held on a chip, and binding of the other changes the refractive index at the surface.

Chain of recombinant human IL-22R (R&D Systems / Biotechne 2770-LR) (human) (Q8N6P7 16-228 limits assumed): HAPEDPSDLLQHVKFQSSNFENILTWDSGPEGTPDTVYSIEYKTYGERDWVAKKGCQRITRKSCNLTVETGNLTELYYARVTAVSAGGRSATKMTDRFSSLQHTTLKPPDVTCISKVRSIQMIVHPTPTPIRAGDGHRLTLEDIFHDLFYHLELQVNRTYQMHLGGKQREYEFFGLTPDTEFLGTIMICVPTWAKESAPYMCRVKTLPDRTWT

B1: 170B2 Fab (Fab, from another filing, V domains shown)
VH: EVQLVESGGGLVQPGGSLRLSCAASGFTFSSSWMYWVRQAPGKGLEFVSVINTRSGITHYVESVKGRFTISTDNAKNTLFLQMNSLKSEDTAVYYCATRIQGLIDYWGQGTQVTVSS
VL: DIVMTQSPSSLSVSLGDRVTITCQASQSIGSVNALAWYQQKPGQSLKLLIHGASRLQTGVPSRFSGSGSGTSFTLAISGVEAEDLATYYCLQDYAWPLTFGQGTKVELK
For B1, the koff amounted to 0.00035 s⁻¹.
